{
  "source": "patent US20070041999A1",
  "about": "(published 2007)",
  "biological_target": "the molecule itself",
  "assay": "disassembly by dialysis, size exclusion chromatography / SEC-HPLC; self-association of capsid protein",
  "experimental": "Dissasembly of plant produced CCMV virus particles: Purified CCMV was disassembled by dialysis against buffer A (50 mM Tris HCl pH7.5, 500 mM CaCl₂, 1 mM DTT, 0.2 mM PMSF) for 16-29 hours at 4° C. The disassembled virus was centrifuged at 14,000 rpm for 15 min at 4° C. to pellet the viral RNA. The remaining supernatant was dialyzed against buffer B (200 mM Tris HCl pH7.5, 1M NaCl, 1 mM DTT, 0.2 mM PMSF) for 2 hours at 4° C. The CCMV dissasembled into capsid protein dimers that were further purified by FPLC Superose 12 size exclusion chromatography. The diassambled CCMV was analyzed by SEC-HPLC (FIG. 8).",
  "data": [
    {"protein": "Wild type CCMV coat protein encoded by sgRNA4 (other, also called CCMV CP; CCMV capsid protein) STVGTGKLTRAQRRAAARKNKRNTRVVQPVIVEPIASGQGKAIKAWTGYSVSKWTASCAAAEAKVTSAITISLPNELSSERNKQLKVGRVLLWLGLLPSVSGTVKSCVTETQTTAAASFQVALAVADNSKDVVAAMYPEAFKGITLEQLTADLTIYLYSSAALTEGDVIVHLEVEHVRPTFDDSFTPVY", "values": [
      {"measurement": "binding result", "value": "binds"}
    ]}
  ]
}
